# Measured values from US20220143148A1, “COMPOSITIONS AND METHODS FOR MODULATING CGRP SIGNALING TO REGULATE INTESTINAL INNATE LYMPHOID CELLS” (The Broad Institute, Inc., priority 2019, published 2022).
# System: small intestinal immune cells
# Experiment: Droplet-based scRNA-seq of small intestinal immune cells (LP and PP), OVA vs PBS, clustering and differential expression
# Format: in vivo, mouse
# Settings: PP; cluster ID 8; OVA vs PBS
# Text: To comprehensively characterize small intestinal immune cells, Applicants generated scRNA-Seq profiles for 58,067 immune cells collected from lamina propria (LP) and Peyer's patch (PP) regions at steady state and after induction of a type 2 inflammatory reaction to ovalbumin (OVA) (Brandt et al., 2003) (FIGS. 1A and 8A). To ensure sufficient representation of rare cells, Applicants combined a normalization strategy—removing by flow sorting either a portion of IgD+ naïve B cells, which are the most abundant cell type in PPs, or all CD19+ and CD3+ T cells (FIG. 8B, Methods)—with profiling of a sufficiently large number of cells number (P>0.99 to recover at least 15 cells from each cluster, Methods) by massively parallel scRNA-seq (Haber et al., 2017) (Methods). Applicants obtained 36,797 and 21,270 high quality cells passing initial filtering (Methods) from PP and LP regions, respectively.
# Overall, Applicants annotated 27 cell subsets across the two compartments, spanning T cells, B cells, ILCs, dendritic cells (DCs), myeloid cells and stromal cells, in frequencies ranging from 0.07% to 14%. Briefly, Applicants first partitioned the cells from the PP regions by unsupervised clustering (Methods) into 46 clusters, retained the 97% of cells that were robustly assigned cell identities in each cluster (Methods), assigned the cells from the LP regions to the 46 clusters using a classifier (Methods), and visualized the data with scvis (Ding et al., 2018), a deep generative model-based method (FIGS. 1B and 8C, Methods). Next, Applicants identified genes that were differentially expressed between the cells in each cluster and the remaining cells (Table 1, Methods), as well as between pairs of clusters (Table 2), to elucidate identities of similar cell types/states. Applicants excluded from downstream analysis clusters mostly consisting of contaminants from epithelium, likely doublets, or cells with a small number of Unique Molecular Identifiers (UMIs) (FIGS. 1C and 8D), or lacking distinct markers (Methods). Altogether, Applicants retained 27 clusters spanning 85% of the cells and each associated with distinct marker genes (FIG. 8E, Methods).
# To induce allergic reaction to OVA, 6 to 7 weeks old mice were sensitized twice, two weeks apart, with 50 μg of OVA plus 1 mg of aluminum potassium sulfate adjuvant via intraperitoneal injection. Two weeks later, mice were orally administered with 50 mg of OVA on every other day for a total of five times. 1 μg of α-CGRP peptide was administered simultaneously when indicated. Mice were deprived of food for 3-4 hours in cages with wood chip bedding for limiting antigen degradation in the stomach before each intragastric challenge.
# Isolation of cells from Peyer's patches (PPs). Peyer's patches (PPs) were carefully dissected from the small intestine under a stereo microscope using a fine scissor, pierced once with a fine forcep. Tissues were digested in freshly made digestion buffer (RPMI-1640 containing 100 μg/ml Liberase™ and 50 μg/ml DNase I at 37° C. on a roto-mixer. After 15 min, tissues were very gently mixed using a 1 ml pipette. The supernatant was collected and added to ice-cold MACS buffer (pH 7.4; PBS plus 2% FCS and 2 mM EDTA). Pre-warmed (37° C.) fresh digestion buffer was added to the remaining tissues. After rotation at 37° C. for 15 min, the mixture was vigorously mixed using a 1 ml pipette for 1 min. Supernatants from the two steps were combined and passed through 70 μm filters and stained for FACS (below).
# Isolation of cells from the lamina propria (LP). The small intestines were opened longitudinally and washed in ice-cold PBS. For scRNA-seq, roughly 0.5 cm of fragments from each of the distal, middle and proximal regions without visible PPs were collected. Epithelial cells were dissociated by tissue rotation in pre-warmed (37° C.) PBS containing 10 mM EDTA at 37° C. for 15 min, followed by additional incubation on ice for 15 min. Tissues were then shaken vigorously. […]
molecule,measurement,value
"OVA (protein, UniProt P01012 2-386, looked up) Ovalbumin: GSIGAASMEFCFDVFKELKVHHANENIFYCPIAIMSALAMVYLGAKDSTRTQINKVVRFDKLPGFGDSIEAQCGTSVNVHSSLRDILNQITKPNDVYSFSLASRLYAEERYPILPEYLQCVKELYRGGLEPINFQTAADQARELINSWVESQTNGIIRNVLQPSSVDSQTAMVLVNAIVFKGLWEKAFKDEDTQAMPFRVTEQESKPVQMMYQIGLFRVASMASEKMKILELPFASGTMSMLVLLPDEVSGLEQLESIINFEKLTEWTSSNVMEERKIKVYLPRMKMEEKYNLTSVLMAMGITDVFSSSANLSGISSAESLKISQAVHAAHAEINEAGREVVGSAEAGVDAASVSEEFRADHPFLFCIKHIATNAVLFFGRCVSP",Fosl2 LN (average fold change),−0.358
same,Ftl1 LN (average fold change),−0.171
same,Gadd45b LN (average fold change),−0.563
same,Gimap1 LN (average fold change),0.283
same,Gimap6 LN (average fold change),0.272
same,Gimap9 LN (average fold change),0.367
same,Gnai2 LN (average fold change),−0.261
same,Gramd1a LN (average fold change),0.460
same,Gramd3 LN (average fold change),−0.502
same,Gzma LN (average fold change),0.340
same,H2-K1 LN (average fold change),0.192
same,H3f3b LN (average fold change),−0.185
same,Hcst LN (average fold change),0.174
same,Hist1h1c LN (average fold change),0.586
same,Hist1h1e LN (average fold change),1.277
same,Icam1 LN (average fold change),−0.819
same,Id2 LN (average fold change),0.467
same,Ier2 LN (average fold change),−0.235
same,Ier5l LN (average fold change),−1.422
same,Ifi203 LN (average fold change),0.402
same,Ifrd1 LN (average fold change),−0.708
same,Igha LN (average fold change),0.514
same,Igkc LN (average fold change),0.390
same,Ikzf2 LN (average fold change),−0.467
same,Il2rg LN (average fold change),−0.226
same,Il16 LN (average fold change),0.455
same,Jun LN (average fold change),0.210
same,Jund LN (average fold change),−0.703
same,Kdm2b LN (average fold change),−0.379
same,Kdm6b LN (average fold change),−0.833
same,Klf4 LN (average fold change),−0.524
same,Klf6 LN (average fold change),0.166
same,Klrb1c LN (average fold change),0.233
same,Klrb1f LN (average fold change),0.487
same,Klrc1 LN (average fold change),0.392
same,Klrc2 LN (average fold change),0.396
same,Klrd1 LN (average fold change),0.261
same,Klre1 LN (average fold change),0.295
same,Klrk1 LN (average fold change),0.213
same,Lax1 LN (average fold change),0.486
same,Litaf LN (average fold change),−0.518
same,Lmna LN (average fold change),−1.022
same,Maff LN (average fold change),−0.445
same,Mcpt1 LN (average fold change),1.756
same,Mir142hg LN (average fold change),−0.715
same,Ms4a4b LN (average fold change),0.271
same,Ms4a6b LN (average fold change),0.490
same,Myl6 LN (average fold change),0.199
same,Nabp1 LN (average fold change),−0.167
same,Ncr1 LN (average fold change),0.265
same,Ndel1 LN (average fold change),−0.337
same,Neat1 LN (average fold change),0.275
same,Neurl3 LN (average fold change),−0.244
same,Nfil3 LN (average fold change),0.490
same,Nfkb1 LN (average fold change),−0.244
same,Nfkbia LN (average fold change),−0.579
same,Nfkbid LN (average fold change),−1.010
same,Nfkbie LN (average fold change),−0.483
same,Nfkbiz LN (average fold change),−0.640
same,Ninj1 LN (average fold change),−0.512
same,Nkg7 LN (average fold change),0.194
same,Nr4a1 LN (average fold change),−0.415
same,Nr4a2 LN (average fold change),−0.530
same,Nr4a3 LN (average fold change),−0.808
same,Odc1 LN (average fold change),−0.540
same,P2ry10 LN (average fold change),−0.196
same,Phlda1 LN (average fold change),−0.867
same,Pim1 LN (average fold change),−0.358
same,Pnrc1 LN (average fold change),−0.302
same,Ppp1r15a LN (average fold change),−0.355
same,Ppp1r16b LN (average fold change),−0.367
same,Ppp3cc LN (average fold change),0.528
same,Prr7 LN (average fold change),−0.910
same,Ptp4a2 LN (average fold change),−0.243
